Source: patent US20140179896A1 (published 2014)

The binders below were run against T1, human vascular endothelial growth factor receptor-2 Fc chimera (KDR-Fc) (human, UniProt P35968 20-764) (assay: radioactive equilibrium binding, 1 nM KDR-Fc).
T1 construct: range 1-764; also called human VEGFR-2; VEGF-R2-Fc; not shown: human IgG1 Fc
Protocol: To prepare ³⁵S-labeled binding proteins for analysis, mRNA was prepared as described above for RNA-protein fusion production but the linker ligation step was omitted. The mRNA was expressed using rabbit reticulocyte lysate translation kit (Ambion) in the presence of ³⁵S-labeled Met at 30° C. for 1 hour. Expressed protein was purified on M2-agarose Flag beads (Sigma) as described above. This procedure produced the encoded protein without the nucleic acid tail. In a direct binding assay, VEGF-R2-Fc fusions in concentrations ranging from 0 to 200 nM were added to a constant concentration of the purified protein (0.2 or 0.5 nM) and incubated at 30° C. for 1 hour in buffer B. The receptor-binder complexes were captured using Protein A magnetic beads for another 10 minutes at room temperature using a Kingfisher™ The beads were washed with six reaction volumes of buffer B. The protein was eluted from the beads with 100 μL of 0.1 M KOH. […] of the reaction mixture and elution were dried onto a LumaPlate-96 (Packard) and the amount of ³⁵S on the plate was measured using a TopCount NXT instrument (Packard). The amount of fibronectin-based scaffold protein bound to the target was estimated as a percent of radioactivity eluted from Protein A magnetic beads compare to radioactivity in the reaction mixture. Nonspecific binding of fibronectin-based scaffold proteins to the beads was determined by measuring binding in the absence of KDR-Fc and represented less than 1-2% of the input. Specific binding was obtained through subtraction of nonspecific binding from total binding. Data was analyzed using the GraphPad Prizm software (GraphPad Software, Inc, San Diego, Calif.), fitted using a one site, non-linear binding equation.

T1 sequence (P35968 20-764 limits assumed, change not shown, form in doubt): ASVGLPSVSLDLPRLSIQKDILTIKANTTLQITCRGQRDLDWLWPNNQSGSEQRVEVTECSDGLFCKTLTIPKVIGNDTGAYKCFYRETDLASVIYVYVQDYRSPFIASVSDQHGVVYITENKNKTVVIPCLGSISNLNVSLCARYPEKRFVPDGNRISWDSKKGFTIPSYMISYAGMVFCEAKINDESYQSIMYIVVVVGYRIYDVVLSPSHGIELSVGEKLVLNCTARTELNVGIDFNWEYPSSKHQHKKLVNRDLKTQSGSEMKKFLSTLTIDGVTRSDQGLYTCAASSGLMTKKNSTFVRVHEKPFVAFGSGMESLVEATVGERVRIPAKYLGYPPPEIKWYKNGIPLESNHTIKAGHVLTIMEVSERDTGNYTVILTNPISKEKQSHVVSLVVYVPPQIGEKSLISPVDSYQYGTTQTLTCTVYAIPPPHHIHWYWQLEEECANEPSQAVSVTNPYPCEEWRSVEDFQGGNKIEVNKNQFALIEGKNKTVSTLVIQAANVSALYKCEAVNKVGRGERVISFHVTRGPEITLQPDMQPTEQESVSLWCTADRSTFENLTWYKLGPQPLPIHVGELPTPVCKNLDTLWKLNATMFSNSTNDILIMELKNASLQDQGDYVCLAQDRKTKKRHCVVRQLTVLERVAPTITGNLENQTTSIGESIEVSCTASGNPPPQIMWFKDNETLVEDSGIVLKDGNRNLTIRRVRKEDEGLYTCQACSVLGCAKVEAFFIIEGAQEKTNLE

Binding to 1 nM KDR, % [%] | Binder
14 | 1′DelAl PR4 (designed binder, Del 1-8) EVVAATPTSLLISWRHPHFPTRYYRITYGETGGNSPVQEFTVPLQPPTATISGLKPGVDYTITGYAVTVAQNDHELLTPISINYRT
15 | 2′Del C8 PR4 (designed binder, Del 1-8) EVVAATPTSLLISWRHPHFPTRYYRITYGETGGNSPVQEFTVPLQPPTATISGLKPGVDYTITGYAVTTAHNGHELLTPISINYRT
22 | 1′DelE7 PR4 (designed binder, Del 1-8) EVVAATPTSLLISWRHPHFPTRYYRITYGETGGNSPVQEFTVPLQPPTATISGLKPGVDYTITGYAVTVAQNGHELFTPISINYRT
16 | 1′DelF3 PR4 (designed binder, Del 1-8) EVVAATPTSLLISWRHPHFPTRYYRITYGETGGNSPVQEFTVPLQPPTATISGLKPGVDYTITGYAVTMAQNDHKLFTPISINYRT
28 | 2′Del D1 PR4 (designed binder, Del 1-8) EVVAATPTSLLISWRHPHFPTRYYRITYGETGGNSPVQEFTVPLQPPTATISGLKPGVDYTITGYAVTLEQNDRVLLTPISINYRT
32 | 2′Del C1 PR4 (designed binder, Del 1-8) EVVAATPTSLLISWRHPHFPTRYYRITYGETGGNSPVQEFTVPLQPPTATISGLKPGVDYTITGYAVTAGLDEHELLIPISINYRT
17 | 1′DelD5 PR4 (designed binder, Del 1-8) EVVAATPTSLLISWRHPHFPTRYYRITYGETGGNSPVQEFTVPLQPPTATISGLKPGVDYTITGYAVTVGQNHHELFTPISINYRT
26 | 2′Del C5 PR4 (designed binder, Del 1-8) EVVAATPTSLLISWRHPHFPTRYYRITYGETGGNSPVQEFTVPLQPPTATISGLKPGVDYTITGYAVTPGHNDHELMVPISINYRT
17 | 1′DelD2 PR4 (designed binder, Del 1-8) EVVAATPTSLLISWRHPHFPTRYYRITYGETGGNSPVQEFTVPLQPPTATISGLKPGVDYTITGYAVTVAKNDHELLTPISINYRT
16 | 1′DelE2 PR4 (designed binder, Del 1-8) EVVAATPTSLLISWRHPHFPTRYYRITYGETGGNSPVQEFTVPLQPPTATISGLKPGVDYTITGYAVTVGQNDHELLTPISINYRT
23 | 1′DelA2 PR4 (designed binder, Del 1-8) EVVAATPTSLLISWRHPHFPTRYYRITYGETGGNSPVQEFTVPLQPPTATISGLKPGVDYTITGYAVTVAQNGHQLFTPISINYRT
34 | 2′Del C6 PR4 (designed binder, Del 1-8) EVVAATPTSLLISWRHPHFPTRYYRITYGETGGNSPVQEFTVPLQPPTATISGLKPGVDYTITGYAVTMGFMAHELMVPISINYRT
29 | 2′Del B2 PR4 (designed binder, Del 1-8) EVVAATPTSLLISWRHPHFPTRYYRITYGETGGNSPVQEFTVPLQPPTATISGLKPGVDYTITGYAVTTGWNGNELFTPISINYRT
34 | 2′Del D10 PR4 (designed binder, Del 1-8) EVVAATPTSLLISWRHPHFPTRYYRITYGETGGNSPVQEFTVPLQPPTATISGLKPGVDYTITGYAVTLADNARELLTPISINYRT
17 | 2′Del B3 PR4 (designed binder, Del 1-8) EVVAATPTSLLISWRHPHFPTRYYRITYGETGGNSPVQEFTVPLQPPTATISGLKPGVDYTITGYAVTDAPNGRELMVPISINYRT
16 | 2′Del A11 PR4 (designed binder, Del 1-8) EVVAATPTSLLISWRHPHFPTRYYRITYGETGGNSPVQEFTVPLQPPTATISGLKPGVDYTITGYAVTEDIRVLWLNTTISINYRT
33 | 2′Del B5 PR4 (designed binder, Del 1-8) EVVAATPTSLLISWRHPHFPTRYYRITYGETGGNSPVQEFTVPLQPPTATISGLKPGVDYTITGYAVTAGRHDHELIIPISINYRT
17 | 1′DelH10 PR4 (designed binder, Del 1-8) EVVAATPTSLLISWRHPHFPTRYYRITYGETGGNSPVQEFTVPLQPPTATISGLKPGVDYTITGYAVTFAQNDHELLTPISINYRT
18 | 1′DelH12 PR4 (designed binder, Del 1-8) EVVAATPTSLLISWRHPHFPTRYYRITYGETGGNSPVQEFTVPLQPPTATISGLKPGVDYTITGYAVTVAQNERELFTPISINYRT
18 | 2′Del D5 PR4 (designed binder, Del 1-8) EVVAATPTSLLISWRHPHFPTRYYRITYGETGGNSPVQEFTVPLQPPTATISGLKPGVDYTITGYAVTVAWNDHMLMTPISINYRT
24 | 1′DelE6 PR4 (designed binder, Del 1-8) EVVAATPTSLLISWRHPHFPTRYYRITYGETGGNSPVQEFTVPLQPPTATISGLKPGVDYTITGYAVTLAQNDRELLTPISINYRT
17 | 1′DelH5 PR4 (designed binder, Del 1-8) EVVAATPTSLLISWRHPHFPTRYYRITYGETGGNSPVQEFTVPLQPPTATISGLKPGVDYTITGYAVTVAQNDRELFTPISINYRT
34 | 2′Del C11 PR4 (designed binder, Del 1-8) EVVAATPTSLLISWRHPHFPTRYYRITYGETGGNSPVQEFTVPLQPPTATISGLKPGVDYTITGYAVTAGLNEHELLIPISINYRT
33 | 2′Del E3 PR4 (designed binder, Del 1-8) EVVAATPTSLLISWRHPHFPTRYYRITYGETGGNSPVQEFTVPLQPPTATISGLKPGVDYTITGYAVTLGPYEHELLTPISINYRT
16 | 1′DelD1 PR4 (designed binder, Del 1-8) EVVAATPTSLLISWRHPHFPTRYYRITYGETGGNSPVQEFTVPLQPPTATISGLKPGVDYTITGYAVTVTQNDHELLTPISINYRT
38 | 2′Del D3 PR4 (designed binder, Del 1-8) EVVAATPTSLLISWRHPHFPTRYYRITYGETGGNSPVQEFTVPLQPPTATISGLKPGVDYTITGYAVTSGLNDRVLFIPISINYRT
17 | 2′Del A2 PR4 (designed binder, Del 1-8) EVVAATPTSLLISWRHPHFPTRYYRITYGETGGNSPVQEFTVPLQPPTATISGLKPGVDYTITGYAVTGGRNGHTLLTPISINYRT
31 | 2′Del B4 PR4 (designed binder, Del 1-8) EVVAATPTSLLISWRHPHFPTRYYRITYGETGGNSPVQEFTVPLQPPTATISGLKPGVDYTITGYAVTSGHNGHEVMTPISINYRT
36 | 1′Del G10 PR4 (designed binder, Del 1-8) EVVAATPTSLLISWRHPHFPTRYYRITYGETGGNSPVQEFTVPLQPPTATISGLKPGVDYTITGYAVTMAQNGHKLMTPISINYRT
